Assay results as given in patent US20060110789.

Tests used:
[1] = target: T1, (5)M3+TE (module 3 of DEBS with the N-terminal linker of module 5, fused to thioesterase), Q03132
T1 chain: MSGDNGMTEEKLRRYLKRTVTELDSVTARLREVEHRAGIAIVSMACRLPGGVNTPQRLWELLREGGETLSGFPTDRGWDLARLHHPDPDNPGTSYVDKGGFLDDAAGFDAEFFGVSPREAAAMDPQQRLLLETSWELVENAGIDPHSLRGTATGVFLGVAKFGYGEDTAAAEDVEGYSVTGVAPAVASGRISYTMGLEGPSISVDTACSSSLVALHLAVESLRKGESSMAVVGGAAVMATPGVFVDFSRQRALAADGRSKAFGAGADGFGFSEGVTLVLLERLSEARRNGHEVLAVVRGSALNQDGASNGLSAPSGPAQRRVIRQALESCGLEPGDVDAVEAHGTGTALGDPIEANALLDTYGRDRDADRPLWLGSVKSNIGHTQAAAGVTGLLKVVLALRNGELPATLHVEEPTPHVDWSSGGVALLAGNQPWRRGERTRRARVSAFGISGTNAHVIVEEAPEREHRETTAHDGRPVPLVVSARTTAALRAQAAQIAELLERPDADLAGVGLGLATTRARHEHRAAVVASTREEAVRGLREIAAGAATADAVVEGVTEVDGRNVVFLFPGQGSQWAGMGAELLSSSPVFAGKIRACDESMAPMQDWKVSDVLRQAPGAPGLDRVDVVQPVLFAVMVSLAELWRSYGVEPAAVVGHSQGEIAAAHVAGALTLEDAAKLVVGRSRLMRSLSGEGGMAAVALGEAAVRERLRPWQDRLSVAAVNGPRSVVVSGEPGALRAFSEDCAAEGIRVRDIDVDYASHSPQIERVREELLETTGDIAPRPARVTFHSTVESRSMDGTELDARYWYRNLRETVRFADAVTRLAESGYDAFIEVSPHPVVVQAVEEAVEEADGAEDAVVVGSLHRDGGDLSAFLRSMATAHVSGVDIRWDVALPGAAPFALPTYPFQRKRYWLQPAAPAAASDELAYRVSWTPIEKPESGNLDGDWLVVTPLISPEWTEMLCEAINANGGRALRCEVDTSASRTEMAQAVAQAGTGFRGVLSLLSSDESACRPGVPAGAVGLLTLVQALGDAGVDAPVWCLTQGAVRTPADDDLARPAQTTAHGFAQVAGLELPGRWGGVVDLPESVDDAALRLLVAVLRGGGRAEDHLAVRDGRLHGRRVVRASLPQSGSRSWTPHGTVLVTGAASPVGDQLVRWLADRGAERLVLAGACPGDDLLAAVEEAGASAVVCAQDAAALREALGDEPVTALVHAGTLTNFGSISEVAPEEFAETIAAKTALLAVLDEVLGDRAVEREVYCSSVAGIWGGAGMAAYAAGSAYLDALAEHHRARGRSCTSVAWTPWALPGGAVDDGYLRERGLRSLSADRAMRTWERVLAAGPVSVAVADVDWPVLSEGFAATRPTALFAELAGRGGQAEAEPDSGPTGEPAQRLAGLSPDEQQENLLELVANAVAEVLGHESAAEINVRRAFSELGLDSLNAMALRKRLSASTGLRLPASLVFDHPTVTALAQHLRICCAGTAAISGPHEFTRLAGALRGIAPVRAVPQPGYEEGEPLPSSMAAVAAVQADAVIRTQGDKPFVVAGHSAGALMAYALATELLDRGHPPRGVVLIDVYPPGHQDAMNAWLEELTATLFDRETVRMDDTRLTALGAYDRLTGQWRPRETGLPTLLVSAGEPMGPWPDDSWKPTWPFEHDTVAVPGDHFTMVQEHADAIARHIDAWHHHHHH

[2] = target: T2, M3+TE (module 3 of DEBS with its own N-terminal linker, fused to thioesterase), Q03132
T2 chain: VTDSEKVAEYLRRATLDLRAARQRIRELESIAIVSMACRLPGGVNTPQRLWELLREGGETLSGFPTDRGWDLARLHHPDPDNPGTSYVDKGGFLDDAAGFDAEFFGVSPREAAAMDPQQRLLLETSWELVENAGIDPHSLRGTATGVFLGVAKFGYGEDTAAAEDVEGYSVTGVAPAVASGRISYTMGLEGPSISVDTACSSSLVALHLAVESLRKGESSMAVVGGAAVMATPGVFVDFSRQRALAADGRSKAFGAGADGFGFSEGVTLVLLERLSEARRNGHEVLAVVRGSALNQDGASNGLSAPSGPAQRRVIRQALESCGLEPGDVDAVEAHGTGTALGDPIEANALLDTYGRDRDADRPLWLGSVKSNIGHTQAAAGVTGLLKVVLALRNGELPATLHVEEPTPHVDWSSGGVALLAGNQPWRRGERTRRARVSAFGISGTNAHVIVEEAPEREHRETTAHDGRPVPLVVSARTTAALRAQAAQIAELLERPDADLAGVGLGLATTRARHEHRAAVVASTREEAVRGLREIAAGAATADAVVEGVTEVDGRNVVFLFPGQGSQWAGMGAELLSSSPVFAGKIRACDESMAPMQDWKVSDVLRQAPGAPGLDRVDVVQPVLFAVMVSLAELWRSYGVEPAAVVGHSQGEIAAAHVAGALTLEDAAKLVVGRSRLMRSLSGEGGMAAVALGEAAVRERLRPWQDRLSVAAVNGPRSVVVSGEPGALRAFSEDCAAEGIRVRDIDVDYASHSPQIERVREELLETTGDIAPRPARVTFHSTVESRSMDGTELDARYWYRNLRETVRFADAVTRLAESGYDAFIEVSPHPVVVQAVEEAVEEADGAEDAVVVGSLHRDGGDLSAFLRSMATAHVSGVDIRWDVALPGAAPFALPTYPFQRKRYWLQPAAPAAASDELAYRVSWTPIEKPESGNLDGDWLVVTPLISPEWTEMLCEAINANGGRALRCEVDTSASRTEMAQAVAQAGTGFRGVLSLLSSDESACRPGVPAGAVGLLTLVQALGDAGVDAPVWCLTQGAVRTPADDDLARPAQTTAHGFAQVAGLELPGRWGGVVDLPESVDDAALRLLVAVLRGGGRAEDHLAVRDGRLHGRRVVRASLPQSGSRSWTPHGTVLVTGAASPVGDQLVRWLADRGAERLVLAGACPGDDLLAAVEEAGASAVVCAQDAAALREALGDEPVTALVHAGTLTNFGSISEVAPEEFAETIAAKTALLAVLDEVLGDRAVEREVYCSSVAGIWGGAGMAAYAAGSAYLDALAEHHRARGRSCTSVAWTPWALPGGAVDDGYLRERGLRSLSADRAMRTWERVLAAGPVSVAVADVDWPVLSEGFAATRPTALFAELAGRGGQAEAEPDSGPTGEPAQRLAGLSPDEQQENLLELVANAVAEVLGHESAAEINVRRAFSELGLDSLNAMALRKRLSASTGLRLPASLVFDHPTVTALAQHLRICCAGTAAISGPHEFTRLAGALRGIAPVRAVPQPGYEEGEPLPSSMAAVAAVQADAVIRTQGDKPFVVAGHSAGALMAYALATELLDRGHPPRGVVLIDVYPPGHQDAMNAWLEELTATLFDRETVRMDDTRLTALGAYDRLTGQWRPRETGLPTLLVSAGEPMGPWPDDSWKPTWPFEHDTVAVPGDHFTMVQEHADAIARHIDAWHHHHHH

B1: M2 (module 2 of DEBS with its natural C-terminal linker) (protein)
chain: MSGDNGMTEEKLRRYLKRTVTELDSVTARLREVEHRAGIAIVGMACRLPGEVDSPERLWELITSGRDSAAEVPDDRGWVPDELMASDAAGTRAHGNFMAGAGDFDAAFFGISPREALAMDPQQRQALETTWEALESAGIPPETLRGSDTGVFVGMSHQGYATGRPRPEDGVDGYLLTGNTASVASGRIAYVLGLEGPALTVDTACSSSLVALHTACGSLRDGDCGLAVAGGVSVMAGPEVFTEFSRQGALSPDGRCKPFSDEADGFGLGEGSAFVVLQRLSDARREGRRVLGVVAGSAVNQDGASNGLSAPSGVAQQRVIRRAWARAGITGADVAVVEAHGTGTRLGDPVEASALLATYGKSRGSSGPVLLGSVKSNIGHAQAAAGVAGVIKVLLGLERGVVPPMLCRGERSGLIDWSSGEIELADGVREWSPAADGVRRAGVSAFGVSGTNAHVIIAEPPEPEPVPQPRRMLPATGVVPVVLSARTGAALRAQAGRLADHLAAHPGIAPADVSWTMARARQHFEERAAVLAADTAEAVHRLRAVADGAVVPGVVTGSASDGGSVFVFPGQGAQWEGMARELLPVPVFAESIAECDAVLSEVAGFSVSEVLEPRPDAPSLERVDVVQPVLFAVMVSLARLWRACGAVPSAVIGHSQGEIAAAVVAGALSLEDGMRVVARRSRAVRAVAGRGSMLSVRGGRSDVEKLLADDSWTGRLEVAAVNGPDAVVVAGDAQAAREFLEYCEGVGIRARAIPVDYASHTAHVEPVRDELVQALAGITPRRAEVPFFSTLTGDFLDGTELDAGYWYRNLRHPVEFHSAVQALTDQGYATFIEVSPHPVLASSVQETLDDAESDAAVLGTLERDAGDADRFLTALADAHTRGVAVDWEAVLGRAGLVDLPGYPFQGKRFWLLPDRTTPRDELDGWFYRVDWTEVPRSEPAALRGRWLVVVPEGHEEDGWTVEVRSALAEAGAEPEVTRGVGGLVGDCAGVVSLLALEGDGAVQTLVLVRELDAEGIDAPLWTVTFGAVDAGSPVARPDQAKLWGLGQVASLERGPRWTGLVDLPHMPDPELRGRLTAVLAGSEDQVAVRADAVRARRLSPAHVTATSEYAVPGGTILVTGGTAGLGAEVARWLAGRGAEHLALVSRRGPDTEGVGDLTAELTRLGARVSVHACDVSSREPVRELVHGLIEQGDVVRGVVHAAGLPQQVAINDMDEAAFDEVVAAKAGGAVHLDELCSDAELFLLFSSGAGVWGSARQGAYAAGNAFLDAFARHRRGRGLPATSVAWGLWAAGGMTGDEEAVSFLRERGVRAMPVPRALAALDRVLASGETAVVVTDVDWPAFAESYTAARPRPLLDRIVTTAPSERAGEPETESLRDRLAGLPRAERTAELVRLVRTSTATVLGHDDPKAVRATTPFKELGFDSLAAVRLRNLLNAATGLRLPSTLVFDHPNASAVAGFLDGTEVRGEAPSALAGLDALEGALPEVPATEREELVQRLERMLAALRPVAQAADASGTGANPSGDDLGEAGVDELLEALGRELDGD
highest rate constant of tetraketide lactone 2 formation (mismatched linkers) [1]: in the range of 0.02-0.03 min^-1 | maximum rate constant (kcat) of tetraketide lactone 2 formation [2]: 0.0045 ± 0.00017 s⁻¹
